Biological target: T1, GC-C (Rattus norvegicus, UniProt P23897)
T1 construct: expressed in transfected cells; host or cells: COS-7
T1 sequence (P23897 23-1072): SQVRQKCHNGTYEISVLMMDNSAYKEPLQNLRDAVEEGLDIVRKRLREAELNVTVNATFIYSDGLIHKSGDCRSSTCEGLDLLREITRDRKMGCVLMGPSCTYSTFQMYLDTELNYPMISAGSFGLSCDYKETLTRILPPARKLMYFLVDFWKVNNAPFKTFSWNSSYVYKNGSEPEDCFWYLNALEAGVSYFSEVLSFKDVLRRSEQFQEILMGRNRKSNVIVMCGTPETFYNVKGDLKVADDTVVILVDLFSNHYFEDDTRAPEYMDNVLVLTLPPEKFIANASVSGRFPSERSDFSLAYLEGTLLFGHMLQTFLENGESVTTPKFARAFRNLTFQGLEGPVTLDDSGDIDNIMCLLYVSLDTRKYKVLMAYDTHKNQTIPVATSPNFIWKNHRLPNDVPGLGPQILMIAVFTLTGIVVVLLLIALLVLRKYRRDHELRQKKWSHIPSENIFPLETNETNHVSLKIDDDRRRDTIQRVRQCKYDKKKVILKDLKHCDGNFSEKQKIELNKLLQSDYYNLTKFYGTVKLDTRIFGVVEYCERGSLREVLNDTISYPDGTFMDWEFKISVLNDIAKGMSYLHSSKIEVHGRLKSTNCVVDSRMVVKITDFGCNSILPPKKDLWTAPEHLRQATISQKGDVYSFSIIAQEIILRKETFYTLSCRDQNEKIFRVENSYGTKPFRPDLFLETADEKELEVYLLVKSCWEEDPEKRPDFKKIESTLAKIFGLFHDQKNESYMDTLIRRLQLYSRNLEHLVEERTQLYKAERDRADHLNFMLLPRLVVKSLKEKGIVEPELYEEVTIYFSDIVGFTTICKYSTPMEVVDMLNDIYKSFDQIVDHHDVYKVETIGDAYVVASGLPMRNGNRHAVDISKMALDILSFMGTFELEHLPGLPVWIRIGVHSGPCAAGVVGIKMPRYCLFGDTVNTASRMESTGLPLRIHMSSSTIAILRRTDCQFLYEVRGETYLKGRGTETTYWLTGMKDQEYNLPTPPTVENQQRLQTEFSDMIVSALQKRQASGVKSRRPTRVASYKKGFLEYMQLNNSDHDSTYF
Type: cell-based

Substance	cyclic GMP levels after stimulation of transfected cells (in words)	stimulation of GC-C (in words)
C-type natriuretic peptide	did not increase cyclic GMP levels above background	failed to stimulate
atrial natriuretic peptide	did not increase cyclic GMP levels above background	failed to stimulate
brain natriuretic peptide	did not increase cyclic GMP levels above background	failed to stimulate

— patent US5237051A (Vanderbilt University, priority 1990, dated 1993)
